This assay has as its target human PD-1 expressed on cells (CHO human PD-1 cells) (human) (UniProt Q15116). The assay can be described thus: cell-based or functional assay.

human PD-1 expressed on cells (CHO human PD-1 cells) (human), sequence (Q15116 21-288): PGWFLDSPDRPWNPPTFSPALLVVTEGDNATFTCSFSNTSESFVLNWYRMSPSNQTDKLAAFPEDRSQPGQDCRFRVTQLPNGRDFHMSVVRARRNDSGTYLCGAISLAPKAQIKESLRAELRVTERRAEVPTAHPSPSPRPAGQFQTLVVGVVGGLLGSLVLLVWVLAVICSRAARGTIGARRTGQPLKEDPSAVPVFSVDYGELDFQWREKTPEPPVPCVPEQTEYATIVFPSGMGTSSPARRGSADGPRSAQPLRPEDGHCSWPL

B1: 1.57-4GS-MSA binder (bispecific antibody, part only; not given: mouse serum albumin binding VH, part only)
chain, part: QVQLVESGGGLVKPGGSLRLSCAASGFTFSDNSMTWMRQAPGKGLEWVSYISSGGGVIFYADSVKGRFTISRDNAKNSLYLQMNSLRADDTAVYYCAREAPLRLGESPHDAFDISGQGTMVTVSSGGGGSGGGGSGGGGSGGGGS
The molecule B1 registered an EC50 (M); human PD-1 reporter gene assay of 1e-08 M and an EC50 (M); reporter assay of 1e-08 M.

The record behind these values is patent US20230357405A1.
